From article PMC4943715, “Expression of Biphenyl Synthase Genes and Formation of Phytoalexin Compounds in Three Fire Blight-Infected Pyrus communis Cultivars” (PLoS ONE, 2016) come the findings set out here.

What all share (experiment): product formation, HPLC-DAD of ethyl acetate extract; Hanes plot
Common to all, as to format: biochemical, Pyrus communis

Substrate in data set [1]: CC(C)(COP(=O)(O)OP(=O)(O)OC[C@H]1O[C@@H](n2cnc3c(N)ncnc32)[C@H](O)[C@@H]1OP(=O)(O)O)[C@@H](O)C(=O)NCCC(=O)NCCSC(=O)c1ccccc1
Conditions: malonyl-CoA at saturation, 0.1 M potassium phosphate pH 7.0, 35°C, 5 min. From the text: (§1) product formation, HPLC-DAD of ethyl acetate extract; Hanes plot on PcBIS1

Substrate in data set [2]: CC(C)(COP(=O)(O)OP(=O)(O)OC[C@H]1O[C@@H](n2cnc3c(N)ncnc32)[C@H](O)[C@@H]1OP(=O)(O)O)[C@@H](O)C(=O)NCCC(=O)NCCSC(=O)CC(=O)O
As to conditions: benzoyl-CoA as starter at saturation, 0.1 M potassium phosphate pH 7.0, 35°C, 5 min.
Excerpt: as §1

Substrate in data set [3]: CC(C)(COP(=O)(O)OP(=O)(O)OC[C@H]1O[C@@H](n2cnc3c(N)ncnc32)[C@H](O)[C@@H]1OP(=O)(O)O)[C@@H](O)C(=O)NCCC(=O)NCCSC(=O)c1ccccc1O
As to conditions: malonyl-CoA at saturation, 0.1 M potassium phosphate pH 7.0, 35°C, 5 min.
Excerpt: as §1

Substrate in data set [4]: CC(C)(COP(=O)(O)OP(=O)(O)OC[C@H]1O[C@@H](n2cnc3c(N)ncnc32)[C@H](O)[C@@H]1OP(=O)(O)O)[C@@H](O)C(=O)NCCC(=O)NCCSC(=O)c1ccccc1
Conditions: malonyl-CoA at saturation, 0.1 M potassium phosphate pH 7.0, 35°C, 5 min. The source says:
(§2) product formation, HPLC-DAD of ethyl acetate extract; Hanes plot on PcBIS2
This is another data set of the same source.

Substrate in data set [5]: CC(C)(COP(=O)(O)OP(=O)(O)OC[C@H]1O[C@@H](n2cnc3c(N)ncnc32)[C@H](O)[C@@H]1OP(=O)(O)O)[C@@H](O)C(=O)NCCC(=O)NCCSC(=O)CC(=O)O
As to conditions: benzoyl-CoA as starter at saturation, 0.1 M potassium phosphate pH 7.0, 35°C, 5 min.
Excerpt: as §2
This is another data set of the same source.

Substrate in data set [6]: CC(C)(COP(=O)(O)OP(=O)(O)OC[C@H]1O[C@@H](n2cnc3c(N)ncnc32)[C@H](O)[C@@H]1OP(=O)(O)O)[C@@H](O)C(=O)NCCC(=O)NCCSC(=O)c1ccccc1O
Conditions: malonyl-CoA at saturation, 0.1 M potassium phosphate pH 7.0, 35°C, 5 min.
Excerpt: as §2
This is another data set of the same source.

Usually Km stands for the concentration of substrate that gives half-maximal velocity. Usually kcat stands for the number of substrate molecules converted per active site and unit of time at saturation. In general, kcat/Km refers to the turnover number divided by the Michaelis constant.

B1: PcBIS1 (Pyrus communis) (protein)
chain: MAPLVKNHVEPPHAKILAIGTANPPNVYYQKDYPDFLFRVTKNEHRTDLREKFDRICEKSRTRKRYLYLTEEILNANPSIYTYGAPSLDVRQDMLNPEVPKLGQQAALKAIKEWGQPISKITHLIFCTASCVDMPGADFQLVKLLGLNPSVTRTMIYEAGCYAGATVLRLAKDFAENNEDARVLVVCAEITTVFFHGLTDTHLDILVGQALFADGASAVIVGANPEPEIERPLFEIVACRQTIIPNSEHGVVANIREMGFNYYLSGDVPKFVGGSVVDFLTKTFEKVDGKNKDWNSLFLSVHPGGPAIVDQVEEQLGLKEGKLRATRHVLSEYGNMGAPSVHFILDEMRNKSIGEGKATTGEGLEWGVVIGIGPGLTVETAVLRSESIPC
B1: in data set [1], the Km turned out to be 1.1 ± 0.2 µM, the kcat stood at 0.055 ± 0.005 s⁻¹ and the kcat/Km stood at 50000 M⁻¹ s⁻¹. The Km in data set [2] was 13.7 ± 2.9 µM. In addition, in data set [3], the Km turned out to be 78.4 ± 4.8 µM, the kcat amounted to 0.77 ± 0.075 s⁻¹ and the kcat/Km came out at 9820 M⁻¹ s⁻¹.

B2: PcBIS2 (Pyrus communis) (protein)
chain: MAPLVKNHVEPPHAKILAIGTANPPNVYYQKDYPDFLFRVTKNEHRTDLREKFDRICEKSRTRKRYLYLTEEILNANPSIYTYGAPSLDVRQDMLNPEVPKLGQQAALKAIKEWGQPISKITHLIFCTASCVDMPGADFQLVKLLGLNPSVTRTMIYEAGCYAGATVLRLAKDFAENNEDARVLVVCAEITTVFFHGLTDTHLDILVGQALFADGASAVIVGANPEPEIESPLFEIVACRQTIIPNSEHGVVANIREMGFNYYLSGEVPKFVGGNVVDFLTKTFEKVDGKNKDWNSLFFSVHPGGPAIVDQVEEQLGLKEGKLRATRHVLSEYGNMGAPSVHFILDEMRKKSIEEGKATTGEGLEWGVVIGIGPGLTVETAVLRSESIPC
For the protein B2, in data set [4], the Km was found to be 0.9 ± 0.1 µM, the kcat was 0.035 ± 0.00167 s⁻¹ and the kcat/Km was 38900 M⁻¹ s⁻¹. Also, in data set [5], the Km was 11.6 ± 2.2 µM. In data set [6], the Km was 95.2 ± 5.4 µM, the turnover number (kcat) amounted to 0.89 ± 0.09 s⁻¹ and the kcat/Km was determined as 9350 M⁻¹ s⁻¹.
